Among the data in a protein production outcome set (Wang et al. 2014) are protein production values, retold here.

A short description of the series: label from the status in PepcDB records.

On to “MEKLKEFRGIKEHLGVFREAVKDAERIGFAGVPGVCTPFAQLFAYAVRDKDNIFIPNTDFSKARKLEVTEYGVELGEISPGNVDVLVLLGGLSMPGIGSDIEDVKKLVEDALEEGGELMGLCYMDMFARAGWYELLDFDCVINADIDGYVLRG”, for which the protein production entry is given as “not failed”.
Consider “MEKLLTVFTPTYNRVHTLHKCYESLKNQSCKDFKWLIIDDGSTDGTKDVVKRWIHEKNDFEITYIYQSNKGMHGAHNTAYENIDTELNICIDSDDYMPRDAVEKINKNWNRVKHNKKISGLVGLDSYENGDVIGKKFPEGLKEATLFEINNKYKIPGDKKLVYRSELTKKFPYPIFEGEKYVGLAYKYYKLDEEHRLALINDILCVVEYLEDGSSKNMIKQYKNNPKGFAFYRIENIKNSKATLKFKFKESIHYVASSFISKNKNFLIESPEKILTLLSIPMGMLLYLYIKIKG”, for which the protein production entry is recorded as “failed”.
The result for “MEKMLSTYIEEAMEFYAIGKGADFKAIIEKGIASCMTTYSTYDRELYKAYALLATYLSNHAFKIIKSRPAFQAMAINCFDQLDSLRQQHDPHLQVTKGFLWMLSSSRAQDADALLISVLRNHPKNILALIGRACLAYNRQDYIGALGYFKSVLLIQPQGMADVWVGIGHCFWKMGELEKAQLSFQIALEHNGQCLNAALALALVKFEHNDEQSYQDGKMLLTAAYKENNKNPDLLSILAGMYYADGNHKLVWSFAGNAIKFTANKHIESRNYFQIAKSYHATGQFESAKKYYLLSAKSAPDGYILPLVGVAQMYLHEGELNRSKAFLESFLTSEPDEPVVMDLLAKIYLEYKCPEKIDKAIEMLVKVVESASYHQNTNSWLNLAFAYEQKRLWAHGVNAYQKAIDIYLSQGHQIPIEWLNNLASSQLMAKMPEKALNTLDDALSKCRVMNSDNKTTNLLSLQYNRGLVLEELHMFTLAAENYKSITKEYSSYHDCYLRLGVMAIQKNNHTQAIEHLKDILVEDNLNMTARTYMGDCFKGLSLDKFATFNYNMILARQSKFTNTYVSMAMGNFCLEKLQNWIAEGNFRAARKQQEKALQCFGKILDCNPKNLWAANGIGAVLSSCNNLSAGGAIFKQIIECGNKCIPAIINSAHIALVSGQYRLAIQTYERCLKDHLPKNRVDVMHCLAKALYDNGDARKAKMWLLKVRHLVPHDPFVIFNLGLAIKKETEQALALPRPQLDELMGLDGLLKVAFKLFCHINLNHPKISVRVSAKYAEDCQNLMTELIAKKRQASESHAMEEDRVQLQKQRYRDHIEHQRQQELQREEEERVRRENLKIQRKEVLERTRKIISAPLAPDVPKKSAGNGRAKKNQENGDGKAKKSGPPKKKTRKRAAGKEQEDIEPLKKPKSKEFIDTDDDNSE” reads “failed”.
The result for “MEKNDIFVVIPAYNEEKMIKNTLINLKSHGYENIIVVDDGSRDNTSKIAISEEVIVCKHIINRGLGGALKTGLKCAVKYNPKVIVTFDADGQHDPEDIFKVSEPILEDSFDVVVGSRLIDENELKNMPLIKKIGNWGLNFITYLMGGRMVTDSQGGLRAFSYDAAEIVSKQLKSNRYEVSSEFIVLFKKNNLKFKEVPIKTIYTEYSMARGTNVITGFKILFKLLIQKLILEHHHHHH” reads “not failed”; that for “MEKNSLFSQRIRLRHLHTFVAVAQQGTLGRAAETLNLSQPALSKTLNELEQLTGARLFERGRQGAQLTLPGEQFLTHAVRVLDAINTAGRSLHRKEGLNNDVVRVGALPTAALGILPSVIGQFHQQQKETTLQVATMSNPMILAGLKTGEIDIGIGRMSDPELMTGLNYELLFLESLKLVVRPNHPLLQENVTLSRVLEWPVVVSPEGTAPRQHSDALVQSQGCKIPSGCIETLSASLSRQLTVEYDYVWFVPSGAVKDDLRHATLVALPVPGHGAGEPIGILTRVDATFSSGCQLMINAIRKSMPF”, “failed”.
Under “MEKQIFCQFLVVMMLLSSSQIQGDLRKGCYDLGITVLMGCPDSIDKKLPAPPTPSEGCCTLVRTIGMKCVCEIVNKKIEDTIDMQKLVNVAAACGRPLAPGSQCGSYRVPGA” stands “failed”; under “MEKRELKASVPKFDKIPWLSEASLVNKPLVLSLPRRYPHTSATFLTSSKKNMNLPILFQVPDVLSKARRNQCDSMLLRNQQLCSTCQEMKMVQPRTMKIPDDPKASFENCMSYRMSLHQPKFQTTPEPFHDDIPTENIHYRLPILGPRTAVFHGLLTEAYKTLKERQRSSLPRKEPIGKTTRQ”, “failed”.
“MEKSKIINYWDKRAESFSKNKLAELESTHAQKWIEEINNINPIQPGMKILDIGTGAGFLAILCGNLGSDVTGIDLSPEMIQSAKQNAESHHQDIHFQVMDAESLQFNDETFDMVISRNVTWLLPNTKAAYQEWLRVLKPNGKLINIDANYGNDSFTDYKSLNTEHAHHTLGKDMLAESEAIKQNIPINHQPRPQTDMDILKSLGFDHIHLDTEIYLRMYSEQDEFYNPTPIFLISVTKSY”: the protein production result is on record as “failed”.
The result for “MELASPISSSFLEAFSRLSLERYSFLSIATSTIPSAAFLTTGFSSFNTSRAKLNASSMISGSLVLTTISFSTLRAETFFFSDFPFRMFLIQENIILATLIILAPRVATPSAAYSFIGSGLFSTIPINISESLVLISSGNSMKVTMAFIVSTACKTTVSSLSSNSLIRSGITSFTSSIPSSFFIASFFIMYRVPFFIKGSFSCNAFLSIDILFSLSSSTIWRAFLTLHPFKFSIYSS” reads “failed”; that for “MELETLFVIGMFLTFGALLMTGYPVAWVLGGTAVIWTVVGVVAVENFGANLWFDYQSSMGLVPERIWKVVSSETLVALPMFIFMGIMLDQSGVAERLMNSMVKLFGAVRGGYAVTVIVIGVLLAATTGIIGASVVLLGMLSLPVMMENKYDKGFAVGTACATGTLGILIPPSIMLVLMADRLAVPEASVGDLFMGAFFPGLMLGAMYVAYAIIRPMLQPNIAPVPEGTEKVSWAIVWDVAKAVVPTAALILGVLGSIFAGIATPTEASGVGALGALLLALMSGRLNLNVLNSSMQQTTRTAAFIFAIFLGATAFSVVLRGLGGDQVIEDALLGLPFGPYGVVLTILLGVFLLGFFLDWVEITLIILPLVAPVVQQLGFDLVWFTILFAMCLQTSFLTPPVGFALFYIKGVAPPEIKVTDIYRGVIPFIIIQLVALAIVFVVPEIATWLPGVAYD”, “failed”; that for “MELGAYRWKAPVGYLDEYVKSFRERKIIGSLCASCGRVYVPPREICARCFTETAEKVEVSQYGEVLAFLVSPPLEKGKVVIAGIDAVQAGFLKEGEQIILAMVRFEGTSSSLVLPLINTEPEKVRVGMKVKAVWAEECKGKLADLIGVEPAFEVIYKLEHHHHHH”, “failed”.
As for “MELIFLGTSAGVPTRTRNVTAILLNLQHPTQSGLWLFDCGEGTQHQLLHTAFNPGKLDKIFISHLHGDHLFGLPGLLCSRSMSGIIQPLTIYGPQGIREFVETALRISGSWTDYPLEIVEIGAGEILDDGLRKVTAYPLEHPLECYGYRIEEHDKPGALNAQALKAAGVPPGPLFQELKAGKTITLEDGRQINGADYLAAPVPGKALAIFGDTGPCDAALDLAKGVDVMVHEATLDITMEAKANSRGHSSTRQAATLAREAGVGKLIITHVSSRYDDKGCQHLLRECRSIFPATELANDFTVFNV”, the protein production entry was “failed”.
Under “MELKNVKDAFDRVTKKQKLCYSKTHEVVDKMSQEIDKALKTIQEDNHESVVADLKKTFEEIAPINLLEASQKEINGVLTKYPKALDKTLNPDISTAYRNVKFDTHTVHQILAQFFYRQGMYDVGDCFISETGEVKPESSVTKAFMEMNMILEAMKERDLGPALKWVASNSDKLKEAKSDLELKLHSLHFLEIAKDKTSEEAINYARKHFATYSADSCCFPEIQKLMCSLLWIRNLNKSPYSEFLSPVLWTNAAKELTRQYCILLGESPESPLSVTVAAGSQVLPTFLKYLNVLPEKRKEWQTMEQLLVPVELSEEYRFYSVFVCPVSKEHSSEDNPPMRLACGHVLCKQSINRMSRNGSRSFKCPYCPTDIDASQCKQLYF” stands “failed”; under “MELMIGRVVKSHGIRGEVAIEVTTEEPEIRFAQGEVLNGRQGGKEHSLTIASVRPHQNRLLVKFKEIADRTAADSLRGTRFFAAPLDDDVDDGFYDHELEGLAVIHGEEKIGEVSGVIHGPAQSLLEVTLESGKEVLIPFVHDIVPEVDLDAGTCVITPPEGLLELLEHHHHHH”, “not failed”.
The result for “MELPSFIFQAQENLVERPWGGEWIALLKGFRQSGIGESWEFSAHTSRPSTVLVKGQQLSMIELFSKHRDELLGRAAEKFSKFPILVRLIDAASPTQVHVHPSDKAAESLGEAEGGVESAWLVFNKGKAYAGFKEDVKIEELEEKLKEEDFDFKTLLNTFETTPYDTFVIRPGIPHAGEGLRVLEVSSNSTLAYFFNENDWEKVKKVLNTKKVEEFEVKGKKGMAETENFGLEVVDVTGTAEIKTGGVMNILYAAEGYFILRGKETADLHRGYSCLVPASTDSFTVESERGKIVRIYLKV” reads “not failed”; that for “MELSINILNIIGILLEIGVSIYIIISEKKKSKNRNSEAENDLIQQTNNIINNTQGDNASFNYTNVLMQSKYQERAYREILNDLGDKKENKQKSKYGKKCSYLRKVINIVCLGIGGFWAFYYFDLMKITSFNTYLLNVLFQTIYTLATFILIFSLSNFVKLFLIHFKEYNYIVLRKIQLFLTTLFALLGATIWLYFDWRANFRPLFNMYTESSYYTLGIIMLGLVFYVFHQMAQSFLLNNIWVPKKAVKILFVSLIFSLIASICLFI”, “failed”.
As for “MELTILILLLPFLSFLILGIGGKWMSHRTAGAIGTLILGAVVVLSYVTAFQYFSAPRLEDGTFATLIPYNFTWLPFTETLRFDLGILLDPISVMMLIVISTVSLMVHIYSFGYMKGETGFQRYYAFLSLFTMSMLGLVVATNIFQMYLFWELVGVSSYLLIGFYYTKPAAIAASKKAFIVTRFADLGFLIGILIYGYYGGTFGFTPDTVSLISGGASMLPLALGLMFIGGAGKSAMFPLHIWLPDAMEGPTPVSALIHAATMVVAGVYLVARMFPLFIAYAPDTLHMIAWVGAFTAFYAASVACVQSDIKRVLAFSTISQIGFMMVALGVCTSMDPHHGGLGYMASMFHLFTHAMFKALLFLGAGSIIHAVHSNEMSAMGGLRKYMPITHWTFLIACLAIAGIPPFSGFFSKDEILAACFQYSPAMGWVMTVIAAMTAFYMFRLYYGIFWGAEPPRASSHSDHSTPHGNLEAAPCRPHESPLAMTFPLIFLAVVTCLAGFIPFGHFISSNGESYSIHLDLSVAVTSVVIAIISIGIATWMYKNAKQPVANALAKRFNGLWTAAYHRFYIDDIYQFITHKIIFRCISTPIAWFDRHVVDGFFNFLAWATNTTSDEIRGLQSGQVQQYAYVFLCGALALILLLVL”, the protein production result was “failed”.
Under “MEMDTMFLAILIGAGLIGISVVTSLISFRVGAPLLLVFLGVGLLAGQDGIGGIVFNDSGTAYFIGSLALAVILFDSGFSTRLQTFRLAAAPSIVLATLGVALTTALVAIPSHSLLGLSWEESALMGAVVGSTDAAAVFFLLRVGGILIRDRVRATLEVESSTNDPMAIFLTITLVELASAGGFSGEALSWGLGLAFVRQMGLGLLCGWIGGHLLVVGINRLRLEPALYPILGLALALFLFAAVSMVDGSGFLAIYVAGMVMGNRKMRGGPALRRFQEALTWLAQMTMFLTLGLFASPSTFIDVALPSVLIGLFLVFVARPVAVWLCLLPFGYDRNETAFVAWVGLRGAVSILLAILPIAAGLEHAQEMFNAAFIVVVTSLLLQGWTIRPMARWLGLVVPPRLGPVDKVELQLPYGGDHELLVYRIAKGSPVAEGERIPRWARPSLVVRDGRSMKVLDSGRPQPGDHVYIFSAPRHGALLDRLFARPTALSPADEAYFGDFSLDASRTMGELATLYGIKVPEGAQDTAVGEWLTQRLGGAPARGDRVVLPPIEIIVREMDNSTDVIRTIGLSLDPGEGRPRRVPMFHNARDIIGSVRDWRAARRRFAAKNS” stands “failed”.
